Reference: the DeepSol protein solubility set

Assay: soluble on expression in E. coli; label from the status in PepcDB or PDB records

Row | Sequence | soluble on expression in E. coli
1 | MDIKVHFHDFSHVRIDCEESTFHELRDFFSFEADGYRFNPRFRYGNWDGRIRLLDYNRLLPFGLVGQIKKFCDNFGYKAWIDPQINEKEELSRKDFDEWLSKLEIYSGNKRIEPHWYQKDAVFEGLVNRRRILNLPTSAGRSLIQALLARYYLENYEGKILIIVPTTALTTQMADDFVDYRLFSHAMIKKIGGGASKDDKYKNDAPVVVGTWQTVVKQPKEWFSQFGMMMNDECHLATGKSISSIISGLNNCMFKFGLSGSLRDGKANIMQYVGMFGEIFKPVTTSKLMEDGQVTELKINSIFLRYPDEFTTKLKGKTYQEEIKIITGLSKRNKWIAKLAIKLAQKDENAFVMFKHVSHGKAIFDLIKNEYDKVYYVSGEVDTETRNIMKTLAENGKGIIIVASYGVFSTGISVKNLHHVVLAHGVKSKIIVLQTIGRVLRKHGSKTIATVWDLIDDAGVKPKSANTKKKYVHLNYLLKHGIDRIQRYADEKFNYVMKTVNLLEHHHHHH | soluble
2 | MPSRQLEDPGAGTPSPVRLHALAGFQQRALCHALTFPSLQRLVYSMCSLCQEENEDMVPDALQQNPGAFRLAPALPARPHRGLSTFPGAEHCLRASPKTTLSGGFFVAVIERVEMPT | not soluble
3 | MGSDKIHHHHHHMPSETIKLTAKFKLKEIPNGLDVLFSTYREIVNFLISYAYENNITSFYRLKKETYKNLRKEYPELPSHYHYTAIDMATKIYRGYRKRRGKAKGKPVFKKEVIMLDDHLFKLDFEKRIVKLSTPSGRIELEFYPAKYHEKFKGWKVGQAWLVKTPKGLFINVVFSREVEIREPENFIGVDLNENNVTLCLPKGEFIQIITHEREIRTGYFVKRRKIQKNLRVGKKREELLEKYGSRERNRVDDLYHKLANKIVELAEKYGGIALEDLTEIRDSIRYSAELNGRLHRWSFRKLQRIIEYKAKLRGIKVIFVNPAYTSTLCPICGGKLSPNGHRVLKCKCGFEADRDVVGSWNVRLKALKMWGVTVPPESHPMKKGGWKVSRIDITQITADQNGYFMRRLRRALLLQ | not soluble
4 | MGSDKIHHHHHHMSKTKEQVVELAQKHGITIQEGSLILNESGLDFQVVFALDVNGKRWVLRLPRREDVVPSTAKEKKTLELIAPHLSVQVPNWEVYSVEMIAYKQLKGVPAATIDHGKKAYVWEMDHTNVSDRFIDTLASGMASLHQIKQDEARRAGVPAEQATEARERMSVRMEKVKSEFGVSEPLWARWQKWLHHDALWPAETGLVHGDLHAGHILIGEQTEVTGFIDWTEAQVTDLSEDFVPHYRIFGEAALNRLIAAYEEAGGYVWPSMKEHVIEREAAFPVAIAEFALKSGIGEYKRMAKEVLGVAE | not soluble
5 | MGSDKIHHHHHHMLMTPDEDRITQLYEAFNRRAFDRCIAMLAPDVSWPDELEDRRLEGLDAVRAYLDHAIAPLRVCYQPIALFTPSPGQIEVLARQTVLSATDGSLWSSLRVRHRYTIKDGLFTHLESEQNYTAPTFEGVDRLLRRLYDAINAGDVDGAAACFGDHACFEDKLEDGPISGPAAIRAHFEHLFATLQVTATMCDYALEPDDRVRVRLQVEARGATGRLWHDGGVTAWYRLEGGLIVGQDVDDSGEEAP | not soluble
6 | MKILLIEDNQRTQEWVTQGLSEAGYVIDAVSDGRDGLYLALKDDYALIILDIMLPGMDGWQILQTLRTAKQTPVICLTARDSVDDRVRGLDSGANDYLVKPFSFSELLARVRAQLRQHHALNSTLEISGLRMDSVSHSVSRDNISITLTRKEFQLLWLLASRAGEIIPRTVIASEIWGINFDSDTNTVDVAIRRLRAKVDDPFPEKLIATIRGMGYSFVAVKK | soluble
7 | MSLHKRMKKKLILAAAGAMAVFSLAACSSGSKDIATMKGSTITVDDFYNQIKEQSTSQQAFSQMVIYKVFEEKYGDKVTDKDIQKNFDEAKEQVEAQGGKFSDALKQAGLTEKTFKKQLKQRAAYDAGLKAHLKITDEDLKTAWASFHPEVEAQIIQVASEDDAKAVKKEITDGGDFTKIAKEKSTDTATKKDGGKIKFDSQATTVPAEVKEAAFKLKDGEVSEPIAATNMQTYQTTYYVVKMTKNKAKGNDMKPYEKEIKKIAEETKLADQTFVSKVISDELKAANVKIKDDAFKNALAGYMQTESSSASSEKKESKSSDSKTSDTKTSDSEKATDSSSKTTESSSKEGGSHHHHHH | soluble
8 | MQVIHQYSNKGGKYQNRYDVSILVNGLPLVHVELKKRGVAIREAFNQIKRYKRDSFSAEDGLFDFVQIFVISNGTSSKYYSNTTRIAQLEKNHKADTFEFTNYWADSKNHNIEDLMDFAKAFFAKRSLLNVLTCYCVFTSEEVLLVMRPYQIVAAERILEKIKTAQNSKTKNQSKGYIWHTTGSGKTLTSFKSATLAKELESVSKVLFVVDRKDLDYQTMKEYDKFQKDCANSNTSTKILKEQLEDSNAKIIITTIQKLDKFVKSHKGHAIFNEEVVMIFDECHRSQLGSMHQAITKAFKKYHLFGFTGTPIFAANCDKNNPLGTTEQKFGKCLHQYTIIDAIRDKNVLPFRVEYHNTIKAKEDIKDNKVRAVDEKNALLDTRRIKEITKCILERFNQATKNKKFNSILACSSIEALKKYYQAFKEEKHDLKIAAIFSYSANEEIDTLEDENNESACRLDKSSRDFLEGAIADYNGMFGVSFDTSDQKFQSYYKDLSQKMKERKIDLLMVVNMFLTGFDATRLNTLWVDKNLKYHGLIQAFSRANRILDSVKTHGNIVCFRDLEQDLNDALMLFGNKDAQSIALLRKYEDYLKGYTDNNKEYEGYEGLIKRLLTEFPLKEPIVSESQKKDFIKLFGKILKLENILNSFENFKKDDYINPRDFQDYQSKYLDFYDAMRSEKGKDKEEINDDLIFEIELIKQVEVNIDYILNLIEEFAKEHGVEIQGVKTKIEPIINSSIELRNKKDLIMDFIDKYNKDQEVHAHFQDYIHQKREEEFQNIIEENRLNEEKAYSFMQHAFKGGEISFSGTEFPKIIEEKPSMFGKNSRYQEVKEKVAASLSRFFHRFCDLTSAIFKKNEVKKDEVNEK | not soluble
9 | MISIKVLFFGEACQLVGKREEAIDFPEETDYEEIRKTILENYPALQKIEKVMMLAVDQEYANPGDRFELVRFTEIAVIPPLSGG | soluble
10 | MLLSTKSKKLIRTQYFTTPGILMRGRSHPVGDFKVQNKNPHFNDISVGKRIRYRRKMLGLSQKQLGHSLGVTFQQIQKYEKGINRVGAGRLQEIATLLDVSISFFYADISTKEHVSYPRNKGISNKEEDFLLKSFRELKPKKQKAILCLLSD | not soluble
11 | SRILVSIGESFGTSEKFQKINQMVCNSDRVLKRSAEGSNPPKPLKK | soluble
12 | MKINRHILDNGLRLVHSQDESTQMVALNVLYNVGARDEHPEHTGFAHLFEHLMFGGSVNIPDYDMPLQLAGGENNAWTNNDITNYYLTVPRQNVETGFWLESDRMLSLDFSERSLEVQRGVVMEEFKQRCLNQPYGDVGHLLRPLAYRAHTYQWPTIGKDLSHIANATLEEVKAFFFRFYAPNNAVLAVTGNISFEEAVALTEKWFGPIPRREVPQRNLPQEPEQTEERRLTVERNVPLDSLFMAYHMCSHDHPDYYAFDILSDLLSNGRSSRLNQRLVQQKQLFSSIDAYISGSVDAGLFHISGKPAAGVSLEQAEAAVREELERLQQEPVDEQELEKVKNKFESTQIFGNINYLNVATNLAWFELLGRAEDMEKEVERYRAVTAGQLQKVAQSAFRKENGVILYYKKQIS | not soluble
13 | MVDQGILRLRQKDASLEFGPPRRRTTVVNWYQERHGTRLTKPEWPLAFVCRNPGTCLQIELVTVMII | not soluble
14 | MVAIIFDMDGVLYRGNRAIPGVRELIEFLKERGIPFAFLTNNSTKTPEMYREKLLKMGIDVSSSIIITSGLATRLYMSKHLDPGKIFVIGGEGLVKEMQALGWGIVTLDEARQGSWKEVKHVVVGLDPDLTYEKLKYATLAIRNGATFIGTNPDATLPGEEGIYPGAGSIIAALKVATNVEPIIIGKPNEPMYEVVREMFPGEELWMVGDRLDTDIAFAKKFGMKAIMVLTGVSSLEDIKKSEYKPDLVLPSVYELIDYLKTL | soluble
15 | MSLKIADIQVRTEHFPLTRPYRIAFRSIEEIDNLIVEIRTADGLLGLGAASPERHVTGETLEACHAALDHDRLGWLMGRDIRTLPRLCRELAERLPAAPAARAALDMALHDLVAQCLGLPLVEILGRAHDSLPTSVTIGIKPVEETLAEAREHLALGFRVLKVKLCGDEEQDFERLRRLHETLAGRAVVRVDPNQSYDRDGLLRLDRLVQELGIEFIEQPFPAGRTDWLRALPKAIRRRIAADESLLGPADAFALAAPPAACGIFNIKLMKCGGLAPARRIATIAETAGIDLMWGCMDESRISIAAALHAALACPATRYLDLDGSFDLARDVAEGGFILEDGRLRVTERPGLGLVYPDEGHHHHHH | soluble
16 | MSSRKVSRAHYDEDELASAANMSLVAEGHFRGMKELLSTMDLDTDANTIPELKERAHMLCARFLGGAWKTVPLEHLRISRIKGGMSNMLFLCRLSEVYPPIRNEPNKVLLRVYFNPETESHLVAESVIFTLLSERHLGPKLYGIFSGGRLEEYIPSRPLSCHEISLAHMSTKIAKRVAKVHQLEVPIWKEPDYLCEALQRWLKQLTGTVDAEHRFDLPEECGVSSVNCLDLARELEFLRAHISLSKSPVTFCHNDLQEGNILLPKASSGNIRMPSLSDETQALGNSLSAFNPADPRLVLIDFEYASYNYRAFDFANHFIEWTIDYDIDEAPFYKIQTENFPENDQMLEFFLNYLREQGNTRENELYKKSEDLVQETLPFVPVSHFFWGVWGLLQVELSPVGFGFADYGRDRLSLYFKHKQLLKNLASHQ | soluble
17 | MKRMLASLLGTAIALGSGLALAAEADLQALEQAARKEGQVNSVGMPDSWANWKDTWKDLESKYGLKHMDTDMSSAQELAKFKAEKDNASADIGDVGAAFGPIAVQQGVSQPYKPSTWEQIPAWAKDQDGHWALAYTGTIAFIVNKQLVKDVPHSWADLLQGKYKVTIGDVSAAAQAVNGVLAAAIANGGDEKNIKPGLEFFGKIAKQGRLSLTNPVIATLEKGEVEVGIVWDFNGLSYRQQIDPERFEVLIPSDGSVISGYTTIINKYAKHPNAAKLAREYIFSDAGQINLAKGNARPIRAESLTLPDDVKAQLLPNEQYAKAQPIKDAKAWEETSKRLPRQWQEAVIINMQ | not soluble
18 | MGSDKIHHHHHHMLNQQWLTTFIKLVELGHFTHTAEQLFMTQSGVSQQIKKLEQQAGAPLLNRIGKGFELTQAGMALLAHAQALVQQQAELLASFHQDNAYSGECKLACSGSLAMLIYPKLIDRQLQYPELKMSLEAAPNQRIIDRVLDNSIDVGIITQEFAHPELSLRLLGSQRLCLVLPNVWEGRLPRLIEYNFLTELGMIDHPDGMHYWQHFVECHFPQHLPQASKIKRLSYVNQLSQILLPVAKGLGFAVLPEFAIKQVSARDGVLEGLFRVPDASLSAHVASESLYLIQKRHRPLALRYQEIITLIKGLIS | not soluble
19 | MAEATDVVLVGGGIMSATLGVLLKELEPSWEITLIERLEDVALESSNAWNNAGTGHSALCELNYAPLGANGIIDPARALNIAEQFHVSRQFWATLVAEGKLEDNSFINAVPHMSLVMNEDHCSYLQKRYDAFKTQKLFENMEFSTDRNKISDWAPLMMRGRDENQPVAANYSAEGTDVDFGRLTRQMVKYLQGKGVKTEFNRHVEDIKRESDGAWVLKTADTRNPDGQLTLRTRFLFLGAGGGALTLLQKSGIPEGKGYGGFPVSGLFFRNSNPETAEQHNAKVYGQASVGAPPMSVPHLDTRNVDGKRHLMFGPYAGFRSNFLKQGSLMDLPLSIHMDNLYPMLCAGWANMPLTKYLLGELRKTKEERFASLLEYYPEANPDDWELITAGQRVQIIKKDSEKGGVLQFGTEIVAHADGSLAALLGASPGASTAVPLMIRLMHQCFPERAPSWEDRLKELVPGYGIKLNENPERADEIIAYTAKVLDI | not soluble
20 | MGSDKIHHHHHHMISMKEEIKKVIEETGLPIITDEKSGAAQWVDLRELRLSYIISVENIKPFYEGLKEGKLLGTKCKKCGRLFFPPQKDCPSCFDSDIEWVELKNEGTLETMTVVFVRPPSFSAYDPYPVAIAKLDDGPRILAWYKGDPQQAKPGMRVKIQVGKRKEGYLMYEIAPA | not soluble
